B1: GFP-FAN1, full-length FAN1 (FAN1^FL) [human] / MLH1 (endogenous, human) [human (endogenous in iPSCs, lymphoblastoid cells, U2OS, HEK293T, MSNs, HeLa)] (parent complex)
chain 1: MMSEGKPPDKKRPRRSLSISKNKKKASNSIISCFNNAPPAKLACPVCSKMVPRYDLNRHLDEMCANNDFVQVDPGQVGLINSNVSMVDLTSVTLEDVTPKKSPPPKTNLTPGQSDSAKREVKQKISPYFKSNDVVCKNQDELRNRSVKVICLGSLASKLSRKYVKAKKSIDKDEEFAGSSPQSSKSTVVKSLIDNSSEIEDEDQILENSSQKENVFKCDSLKEECIPEHMVRGSKIMEAESQKATRECEKSALTPGFSDNAIMLFSPDFTLRNTLKSTSEDSLVKQECIKEVVEKREACHCEEVKMTVASEAKIQLSDSEAKSHSSADDASAWSNIQEAPLQDDSCLNNDIPHSIPLEQGSSCNGPGQTTGHPYYLRSFLVVLKTVLENEDDMLLFDEQEKGIVTKFYQLSATGQKLYVRLFQRKLSWIKMTKLEYEEIALDLTPVIEELTNAGFLQTESELQELSEVLELLSAPELKSLAKTFHLVNPNGQKQQLVDAFLKLAKQRSVCTWGKNKPGIGAVILKRAKALAGQSVRICKGPRAVFSRILLLFSLTDSMEDEDAACGGQGQLSTVLLVNLGRMEFPSYTINRKTHIFQDRDDLIRYAAATHMLSDISSAMANGNWEEAKELAQCAKRDWNRLKNHPSLRCHEDLPLFLRCFTVGWIYTRILSRFVEILQRLHMYEEAVRELESLLSQRIYCPDSRGRWWDRLALNLHQHLKRLEPTIKCITEGLADPEVRTGHRLSLYQRAVRLRESPSCKKFKHLFQQLPEMAVQDVKHVTITGRLCPQRGMCKSVFVMEAGEAADPTTVLCSVEELALAHYRRSGFDQGIHGEGSTFSTLYGLLLWDIIFMDGIPDVFRNACQAFPLDLCTDSFFTSRRPALEARLQLIHDAPEESLRAWVAATWHEQEGRVASLVSWDRFTSLQQAQDLVSCLGGPVLSGVCRHLAADFRHCRGGLPDLVVWNSQSRHFKLVEVKGPNDRLSHKQMIWLAELQKLGAEVEVCHVVAVGAKSQSLS
chain 2: MSFVAGVIRRLDETVVNRIAAGEVIQRPANAIKEMIENCLDAKSTSIQVIVKEGGLKLIQIQDNGTGIRKEDLDIVCERFTTSKLQSFEDLASISTYGFRGEALASISHVAHVTITTKTADGKCAYRASYSDGKLKAPPKPCAGNQGTQITVEDLFYNIATRRKALKNPSEEYGKILEVVGRYSVHNAGISFSVKKQGETVADVRTLPNASTVDNIRSIFGNAVSRELIEIGCEDKTLAFKMNGYISNANYSVKKCIFLLFINHRLVESTSLRKAIETVYAAYLPKNTHPFLYLSLEISPQNVDVNVHPTKHEVHFLHEESILERVQQHIESKLLGSNSSRMYFTQTLLPGLAGPSGEMVKSTTSLTSSSTSGSSDKVYAHQMVRTDSREQKLDAFLQPLSKPLSSQPQAIVTEDKTDISSGRARQQDEEMLELPAPAEVAAKNQSLEGDTTKGTSEMSEKRGPTSSNPRKRHREDSDVEMVEDDSRKEMTAACTPRRRIINLTSVLSLQEEINEQGHEVLREMLHNHSFVGCVNPQWALAQHQTKLYLLNTTKLSEELFYQILIYDFANFGVLRLSEPAPLFDLAMLALDSPESGWTEEDGPKEGLAEYIVEFLKKKAEMLADYFSLEIDEEGNLIGLPLLIDNYVPPLEGLPIFILRLATEVNWDEEKECFESLSKECAMFYSIRKQYISEESTLSGQQSEVPGSIPNSWKWTVEHIVYKALRSHILPPKHFTEDGNILQLANLPDLYKVFERC

Variants of: B1
Assay: GFP-Trap pull-down, quantified immunoblot; U2OS cell extracts; n = 5 biological replicates; parent: 100; read off a plot

| Variant | percent of parent |
| --- | --- |
| chain 1 Q123A | ~110 |
| chain 1 F129A | ~5 |
| chain 1 S126A | ~10 |
| chain 1 Y128A | ~1 |
